Columns and labels:
[1] = target: T1, fetuin (Bos taurus, UniProt P12763); experiment: solid-phase assay, Scatchard analysis
T1 chain: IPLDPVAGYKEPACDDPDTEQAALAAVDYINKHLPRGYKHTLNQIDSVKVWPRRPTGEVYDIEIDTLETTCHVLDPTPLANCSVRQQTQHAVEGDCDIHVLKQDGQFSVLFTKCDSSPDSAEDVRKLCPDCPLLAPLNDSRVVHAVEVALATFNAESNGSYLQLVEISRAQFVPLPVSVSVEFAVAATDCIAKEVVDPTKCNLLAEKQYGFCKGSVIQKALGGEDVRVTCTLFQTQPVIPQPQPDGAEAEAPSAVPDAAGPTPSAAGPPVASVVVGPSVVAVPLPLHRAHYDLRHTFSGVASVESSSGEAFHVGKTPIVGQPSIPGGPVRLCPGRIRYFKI

[2] = target: T2, asialofetuin (Bos taurus, UniProt P12763); experiment: solid-phase assay, Scatchard analysis
T2 chain: T1 chain

B1: Gal-8 (NN) N-terminal CRD tandem homodimer (NN, no linker) (protein)
chain: MMLSLNNLQNIIYNPVIPFVGTIPDQLDPGTLIVIRGHVPSDADRFQVDLQNGSSMKPRADVAFHFNPRFKRAGCIVCNTLINEKWGREEITYDTPFKREKSFEIVIMVLKDKFQVAVNGKHTLLYGHRIGPEKIDTLGIYGKVNIHSIGFSFSS
modifications: engineered linker-free tandem of two Gal-8N CRDs, biotinylated; fetuin with sialylated N-glycans
- Kd [1]: 93 nM

B2: Gal-8 (NN) N-terminal CRD tandem homodimer (NN, no linker) (protein)
chain: B1 chain
modifications: engineered linker-free tandem of two Gal-8N CRDs, biotinylated; fetuin chemically desialylated (N-glycans)
- Kd [2]: 148 nM

— PMC6151538 (2017)
